Source: article PMC6908968 (Cell, 2019)
Changes are numbered by the printed parent chain.

T1: thermolysin-cleaved EBOV GP on Jurkat-GP cells (cleaved GP) (Zaire ebolavirus, Makona (GP1 core …, strain))
T1 chain 1: not shown
T1 chain 2: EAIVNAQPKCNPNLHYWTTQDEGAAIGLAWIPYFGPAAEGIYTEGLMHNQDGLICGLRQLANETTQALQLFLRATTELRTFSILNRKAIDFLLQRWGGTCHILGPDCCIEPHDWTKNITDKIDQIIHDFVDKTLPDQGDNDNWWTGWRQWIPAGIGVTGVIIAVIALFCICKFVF

B1: 5.6.c2686 (antibody, V domains shown)
VH: QVQLQESGPGLVKPSGTLSLTCAVSGGSITSSDWWSWVRQTPGKGLEWIGQIYSGGMTDYNPSLKSRVTMSLDKSKNQFSVKLNSVTAADTAVYYCARHRLNAEMYCSGGSCYPADSNWFDPWGQGTLVTVSS
VL: DIQMTQSPSSLSASVGDRVTITCRASQSISTYLNWYQQKPGKAPKLLIYATSSLQSGVPSRFSGSGSGTDFTFTISSLQPEDFATYYCQQSYSTPFTFGPGTKVDIK
B2: 5.6.c2687 (antibody, V domains shown)
VH: QVQLMESGGGVVQPGRSLRLSCAASGFTFSSYGMHWVRQAPGKGLEWVAVIWNDGSNKYYADSVKGRFTISRDNSKNTLYLQMNSLRVEDTAVYYCARDSSAPAAIFYDAFDMWGQGTMVTVSS
VL: EIVMTQSPATLSVSPGERATLSCRASQSINSNLAWYQQKPGQAPRLLIYGVSTRATGIPARFSGSGSGTEFTLTISSLQSEDFAVYYCQQYNNWWTFGQGTKVEIK
B3: 5.6.c2692 (antibody, V domains shown)
VH: QVTLRESGPALVKSTQTLTLTCTFSGFSLSTSGMCVSWIRQPPGKALEWLALIDWDDGKYYSTSLKTRLTISKGTSKNQVVLTMTNMDPVDTATYYCARIRYTSDWFYDAFDIWGQGTMVTVSS
VL: ETVMTQSPATLSVSPGERATLSCRASQSVNSNLAWYQQRPGQAPRLLISGASTRATGIPARFSGSGSGTEFTLTISSLQSEDFAVYYCQQYNDWPPLTFGGGTKVEIK
B4: 5.6.c2693 (antibody, V domains shown)
VH: QVQVVESGGGVVQPGRSLRLTCATSGFTFRSYGMHWVRQAPGKGLEWVAGISYDGSNKYYADSVKGRFSISRDNSKNTVYLQMNSLRVEDTAVYYCANQLICVNGVCYKTTSVAGIDYWGQGTLVTVSS
VL: DIQMTQSPSSLSASVGDRVTITCRASQDISNYLAWFQQKPGKAPKCLIYAASSLQSGVPSKFSGSGSGTDFTLTISSLQPEDFATYYCQQYKDYPLTFGPGTKVDVR
B5: 5.6.c2712 (antibody, V domains shown)
VH: QVQLQESGPGLVKPSETLSLTCSVSGGSISSDYWSWIRQPPGKGLEWIGYIYYDGSTNFNPSLKSRVTISVDTSKNQLSLKLSSVTAADTAVYYCARVRRWIELGTGLGDWFDPWGQGTLVTVSS
VL: SSELTQDPAVSVALGQTVRITCQGDSLRSYYASWHQLKPGQAPVVVIYGIHNRPSGIPDRFSGSSSGNTASLTITGAQAEDEADYYCSSRDSSGNHLVFGGGTKLTVL
B6: 5.6.c2724 (antibody, V domains shown)
VH: QVQLQQLGAGLLKPSETLSLTCAVSGGSFSGYYWSWIRQSPGKGLEWIGEVNQSGNTNYNPSLKSRVTISPDTSKNQFSLKLSSVTAADTAVYYCARGLEDTALLADAFDIWGQGTLVTVSS
VL: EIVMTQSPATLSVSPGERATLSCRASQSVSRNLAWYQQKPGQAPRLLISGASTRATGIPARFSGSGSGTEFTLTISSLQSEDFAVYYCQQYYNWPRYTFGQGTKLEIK
B7: 5.6.c2725 (antibody, V domains shown)
VH: QVQLQESGPGLVKPSQTLSLTCTVSGGSISSGGYYWSWIRQHPGKGLEWIGYIYYSGSTYYNPSLKSRVSISAGTSKNQFSLKLSSVTAADTAVYYCARAYCGGDCYSLLYYYYGMDVWGQGTTVTVSS
VL: QSALTQPASVSGSPGQSITISCTGTSSDVGGYNSVSWYQQHPGKAPKLMIYDVSNRPSGVSDRFSGSKSGNTASLTISGLQAEDEADYYCSSYTSSSTLVFGGGTKLTVL
B8: 5.6.c2762 (antibody, V domains shown)
VH: QLQLQESGPGLVRPSETLSLTCTVSGGSINTNVYYWGWIRQPPGKGLEWIGTIHYSGSTYYNPSVKSRVTISVDTSTNQFSLRLNSLTAADTAVYYCARLAYGSGWAGWFDPWGQGTLVTVSS
VL: SSELTQDPAVSVALGQTVRITCQGDSLRVYYATWYQQKPGQAPVLVIYAKNSRPSGIPDRFSGSSSGNTASLTITGTQAEDEADYYCNSRDSSGKVWVFGGGTKLTVL
B9: 5.6.c2773 (antibody, V domains shown)
VH: QVELQESGPGLVKPSGTLSLTCTVSGGSISSYHWSWIRQPPGKGLEWIAYMYYSGSTNYNPSLKSRVTTSVETSKNQLSLKVSSVTAADTAVYYCARIVGDEIFFYGLDVWGQGTTVTVSS
VL: DIQMTQSPSSVSASVGDRVTITCRASQDISILLAWYQQKPGKAPKLLIYAASSLQSGVPSRFSGSGSGTDFTLTISSLQPEDFATYYCQQANSFPWTFAQGTKVEIK
B10: 5.6.c2798 (antibody, V domains shown)
VH: QVQLQESGPGLVKPSETLSLTCTVSGGSISPDYWTWIRQPPGKGLEWIGFIYYAGGTDYNPSLKSRVTMSIDTSKKQFFLKLNSVTAADTAVYYCASGVPEDNSQILYYYYGMDVWGPGTTVTVSS
VL: QSVLTQPPSVSAAPGQKVTISCSGSSPNIGNNYVSWYQQLPGTAPKLLIYDNNKRPSGIPDRFSGSKSGTSATLGITGLQTGDEADYYCGTWDRSLSAYVFGTGTKVTVL
B11: 5.6.c2801 (antibody, V domains shown)
VH: EVQLVESGGGLVQPGGSLRLSCAASGFTFSTYWMSWVRQAPGKGLEWVANIKEDGSEKYYVDSVKGRFTISRDNGKNSLYLQMNSLRAEETAVYYCARDVPGDTVLGDAFHIWGQGTMVTVSS
VL: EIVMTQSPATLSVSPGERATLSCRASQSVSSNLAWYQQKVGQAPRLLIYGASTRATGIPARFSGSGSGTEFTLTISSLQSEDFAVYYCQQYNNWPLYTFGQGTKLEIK
B12: 5.6.c2824 (antibody, V domains shown)
VH: QVQLQESGPGLVKPSGTLSLTCAVSGGSISSNSWWSWVRQPPGKGLEWIGDMYHSGSTNYNPSLKSRVTISVDKSKNQFSLKLSSVTAADTAVYYCARARHDDSNTFLWFVYGMDVWGQGTTVTVSS
VL: B1 VL with A25T, T31S, T51A, F73L, S77T, Y87F, F96R, P100Q, V104L, D105E
B13: 5.6.c2828 (antibody, V domains shown)
VH: EVQLVQSGAEVKKPGESLRISCKGSGYSFTKYWISWVRQMPGKGLEWMGRIDPSDSSTNYSPSFQGHVTISDDKSTSIVYLQWSSLKASDTAMYYCARHSWVQNSAYDPQMISYDHYYGMDVWGQGTTVTVSS
VL: ENVLTQSPGTLSLSPGERATLSCRASQSVSSSYLAWYQQKPGQAPRLLIYGASSRATGIPDRFSGSGSGTDFTLTISRLEPGDFAVYYCHQYGSSPLTFGQGTRLEMK
B14: 5.6.c2866 (antibody, V domains shown)
VH: QVQLVQSGAEVKKPGSSVKVSCKASGGTLSSYAISWVRQAPGQGLEWMGRIIPTLGMANYSQNFQGRVTITADKSTSTAYMELSSLRSEDTAVYYCARDPPPGYGDLFYYYSMDVWGQGTTVTVST
VL: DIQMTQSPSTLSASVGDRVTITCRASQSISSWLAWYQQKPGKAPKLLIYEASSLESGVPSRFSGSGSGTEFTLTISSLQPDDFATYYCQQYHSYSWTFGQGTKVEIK
B15: 5.6.c2886 (antibody, V domains shown)
VH: QVQLQESGPGLVKPSQTLSLTCTVSGGSISSGDYYWSWIRQHPGKGLEYIGYIYYSGSTFHNPSLKSRVTISIDTSKNQFSLKLSSVTAADTAVYYCARDSGSEIIMGAYGMDVWGQGTTVTVSS
VL: DIQMTQSPSSVSASVGDRVTITCRASQGISWLAWYQQKPGKAPKLLIYAASSLQSGVPSRFSGSGSGTDFTLTISSLQPEDFATYYCQQANSFPWTFGQGTKVEIK
B16: 5.6.c2913 (antibody, V domains shown)
VH: DVQLVESGGGLVQPGGSLRLSCVASGLTFSRDWMTWVRQAPGKGLEWVANIKQDGSEKYYLDSVKGRFTISRDNSNNALYLQMSSLRGEDTAVYYCARLHGGGFSDSDLFYYDFAMDVWGQGTTVTVSA
VL: B3 VL with T2I, N30I, S31N, R39K, S49Y, S77N, D93N, K104Q
B17: 5.6.c2931 (antibody, V domains shown)
VH: QLQLQESGPGLVKPSQTLSLTCTVAGGSISRSSYYWGWIRQSPGKGLEWIGSIHYSGSTHYNSSLRSRVTISVDTSKNQFSLNLTSVTAADTAVYYCVRQSSVPYFDWSSPGQIDPWGQGTLVTVSS
VL: QLVLTQSPSASASLGASVKFTCTLSSGHRSYAIAWHQQQPEKGPRYLMKINSDGSHNKGDGIPDRFSGSSSGDERYLTISSLQSEDEADYYCQTWGTGIQVFGGGTKLTVL
B18: 5.6.c2954 (antibody, V domains shown)
VH: QAQLQESGPGLVKPSQTLSLTCTVSGGFSSSGGFFWSWIRQHPGKDLEWIGYIYSSGSPYYKPSLKSRVTISIDTSKNQFSLRLSSVTAADTAIYYCARGRGEMLTGYFDYWGQGKLVTVSS
VL: SYVLTQPPSVSVAPGKTASITCGGNNIGSKSVHWYQQRPGQAPVLVIYYDTDRPSGIPERFSGSNSGNTATLTISRVEAGDEADYYCQVWDSSSDPLLFGGGTKLTVL
B19: 5.6.c2957 (antibody, V domains shown)
VH: QVRMVQSGAEVKKPGSSVKVSCKTSGGTFSTYSISWVRQAPGHGLEWMGRLIPMLGTPNYAQKFQGRLTITADRSTSTAYMELSSLSSEDTAVYYCARDLGTVLTPGDSWGQGTLVTVSS
VL: B4 VL with D28G, K42E, C46S, S77N, K92N, D93S, P100G, D105E, V106I, R107K
B20: 5.6.c2961 (antibody, V domains shown)
VH: QVQLQESGPGLVKPSQTLSLTCTVSGDSISSGDYYWNWIRHHPGKGLEWLGYIYYSGSSDYNPSLKSRVTISVDTSKNHFSLKLSSVTAADTAIYYCARGSVSVLFGELDVWGQGTTVTVSS
VL: EIVLTQSPGTLSLSPGERATLSCRASQSVSNNFLAWYQQIRGQAPRLLIYGVSHRATGIPDRFSGSGSGTDFTLTISGLEPEDFALYYCQQYGRSPYTFGQGTRLEIK

Biological target: T1, thermolysin-cleaved EBOV GP on …

**Q.** Does B1 bind?
**A.** Result: binds

**Q.** Does B2 bind?
**A.** Result: binds

**Q.** Does B3 bind?
**A.** Result: binds

**Q.** Does B4 bind?
**A.** Result: binds

**Q.** Does B5 bind?
**A.** Result: binds

**Q.** Does B6 bind?
**A.** Result: binds

**Q.** Does B7 bind?
**A.** Result: binds

**Q.** Does B8 bind?
**A.** Result: binds

**Q.** Does B9 bind?
**A.** Result: binds

**Q.** Does B10 bind?
**A.** Result: binds

**Q.** Does B11 bind?
**A.** Result: binds

**Q.** Does B12 bind?
**A.** Result: binds

**Q.** Does B13 bind?
**A.** Result: binds

**Q.** Does B14 bind?
**A.** Result: binds

**Q.** Does B15 bind?
**A.** Result: binds

**Q.** Does B16 bind?
**A.** Result: binds

**Q.** Does B17 bind?
**A.** Result: binds

**Q.** Does B18 bind?
**A.** Result: binds

**Q.** Does B19 bind?
**A.** Result: binds

**Q.** Does B20 bind?
**A.** Result: binds

What follows are binders tested against EBOV GP ectodomain residues 1-636 (GPec) (Zaire ebolavirus, strain  …, UniProt Q05320).

**Q.** Does B1 bind?
**A.** Result: binds

**Q.** Does B2 bind?
**A.** Result: binds

**Q.** Does B3 bind?
**A.** Result: binds

**Q.** Does B4 bind?
**A.** Result: binds

**Q.** Does B5 bind?
**A.** Result: binds

**Q.** Does B6 bind?
**A.** Result: binds

**Q.** Does B7 bind?
**A.** Result: binds

**Q.** Does B8 bind?
**A.** Result: binds

**Q.** Does B9 bind?
**A.** Result: binds

**Q.** Does B10 bind?
**A.** Result: binds

**Q.** Does B11 bind?
**A.** Result: binds

**Q.** Does B12 bind?
**A.** Result: binds

**Q.** Does B13 bind?
**A.** Result: binds

**Q.** Does B14 bind?
**A.** Result: binds

**Q.** Does B15 bind?
**A.** Result: binds

**Q.** Does B16 bind?
**A.** Result: binds

**Q.** Does B17 bind?
**A.** Result: binds

**Q.** Does B18 bind?
**A.** Result: binds

**Q.** Does B19 bind?
**A.** Result: binds

**Q.** Does B20 bind?
**A.** Result: binds
